B1: FOXJ1 (parent)
chain: SAIYKWITDNFCYFRHADPTWQNS
B2: SMOC2 (parent)
chain: QKPLCASDGRTFLSRCEFQRAKCK

Variants of: B1
Test: protein stability index of a GFP-peptide fusion (GPS, HEK-293T) (PSI 1-6); higher = more stable
Conditions: c terminus: a fixed tail appended
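Note: lentivirally expressed fusions sorted by FACS into six bins by GFP to DsRed ratio, PSI derived from sequencing read proportions per bin multiplied by bin number.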

Protein stability index: each site, then its substitutions
D9: I 4 | M 3.64 | P 2.83 | L 2.65 | C 4.21 | F 3.55 | Y 2.56 | S 3.04 | Q 2.67 | E 3.89 | R 3.41 | T 3.43 | G 3.51 | H 4.47 | A 2.74
Y13: F 2.47 | H 3.23 | K 1.86 | E 1.03 | G 3.62 | P 2.18 | R 1.8 | V 3 | S 2.2 | L 1.87 | D 1.8 | A 3.53 | Q 1.57 | C 2.83 | W 3.59 | T 2.96 | M 2.87
F11: H 2.71 | C 2.68 | N 2.05 | P 1.79 | G 1.96 | Q 2.21 | K 2.08 | S 3.59 | W 2.53 | Y 3.4 | E 1.89 | T 2.83 | R 3.03 | D 1.49 | V 3.51 | L 3.24 | M 3.18
C12: A 2.57 | Y 3.81 | D 1.59 | Q 1.81 | G 2.61 | L 3.4 | F 2.67 | R 1.81 | K 2.81 | H 3.13 | P 1.97 | I 2.77 | S 2.78 | N 1.6 | W 3.99 | E 1.95 | T 3.14 | V 2.69
Y4: E 2.99 | I 2.52 | Q 2.97 | T 1.52 | N 2.71 | F 2.59 | H 2.58 | L 2.95 | S 2.68 | D 2.24 | W 2.97 | P 2.27 | C 2.04 | A 1.47
K5: Y 3.64 | L 2.73 | M 3 | E 1.81 | D 3.42 | P 1.26 | Q 2.99 | W 2.78 | I 3.27 | C 2.24 | V 3.36 | S 3.33 | H 3.79 | G 3.71 | N 3.19 | F 2.91 | R 3.05 | T 2.46 | A 2.97
I7: G 2.4 | M 3.88 | A 2.02 | Q 1.36 | N 1.93 | W 3.71 | P 2.1 | H 1.6 | S 2.81 | D 2.27 | C 1.84 | E 2.3 | Y 1.86 | R 1.79 | L 2.9 | T 1.66 | F 2.87 | K 1.74 | V 2.81
S1: W 3.8 | C 3.86 | D 3.17 | G 3.32 | T 3.01 | F 3.6 | H 2.92 | K 3.58 | M 3.02 | A 3.31 | E 3.4 | P 2.9 | V 2.43 | L 2.55 | Q 2.31 | I 4.71 | Y 2.05 | N 2.5
T8: N 3.01 | M 3.27 | G 2.05 | C 2.73 | A 3.42 | Q 2.78 | D 3.49 | F 3.33 | S 4.33 | R 2.51 | E 2.79 | V 2.13 | P 1.86 | I 1.8 | H 3.34
F14: S 2.13 | K 2.58 | G 2.33 | I 4.22 | M 2.21 | E 2.23 | H 2.56 | A 2.32 | C 3.92 | R 1.75 | N 2.14 | P 2.04 | V 3.33 | D 2.64
N10: F 1.81 | Q 2.11 | I 2.79 | G 1.42 | C 2.08 | L 3.56 | R 2.2 | K 2.34 | E 2.62 | D 1.58 | T 2.05 | P 2.13 | V 1.74 | H 2.3 | M 2.89 | Y 3.33 | W 2.06
I3: V 3.81 | K 1.84 | S 1.21 | H 1.98 | Q 2.1 | P 2.06 | R 1.78 | A 2.42 | L 2.36 | M 3.21 | T 1.7 | E 1.67 | F 1.87 | N 1.6 | C 4.05 | Y 3.11 | D 2.83 | W 2.41
W6: S 1.71 | R 1.86 | E 2.27 | F 2.43 | N 2.71 | C 2.1 | M 3.3 | D 2.12 | Y 3.11 | V 1.49 | K 1.22 | A 1.66 | G 1.67 | H 2.2 | P 2.13 | Q 2.07 | T 1.43 | I 3.22
A2: V 2.4 | N 2.25 | I 3.56 | E 1.44 | Y 2.04 | C 3.04 | W 2.53 | R 2.52 | H 3.1 | K 2.72 | P 3.53 | F 4.1 | L 2.45 | Q 2.49 | G 2.87

Variants of: B2
Test: as above
Conditions: c terminus: a fixed tail appended

Protein stability index, by site and new letter:
F18: D 4.12 | E 4.73 | K 4.62 | M 3.67
R15: S 3.41 | N 3.09 | V 3.71 | G 3.93 | Y 3.09
K24: R 1.74 | H 2.76 | C 1.98 | Q 2.64 | E 3.19 | N 2.48 | P 2.83
F12: C 2.97 | M 3.16 | D 4.57 | W 2.34
C23: S 3.69 | Q 3.91 | K 4.07
R10: E 3.27 | Y 2.91 | H 2.71 | S 3.84 | I 2.53
L13: H 3.31 | D 4.78 | R 3.15 | V 2.29
C5: H 2.7 | Y 2.38 | T 3.41
C16: D 4.62 | A 3.39 | I 1.79
S7: D 3.36 | W 2.85 | V 2.59
R20: L 3.01
K2: M 3.87 | W 2.48 | E 3.78 | T 3.18 | I 3.51 | V 2.97
D8: T 2.9 | F 1.94
A21: I 3.14 | S 3.14 | D 3.17 | M 2.88
T11: K 4.04 | N 3.06 | C 2.05
Q19: M 3.09 | G 3.15 | C 3.48 | P 3.28
K22: Q 3 | M 2.36 | A 3.02
S14: N 3.47 | W 2.21 | D 3.21
Q1: F 3.05 | C 1.87 | T 3.41 | G 3.23 | I 2.19
G9: L 2.68 | Q 2.64 | H 2.75 | D 3.99 | P 2.45
A6: S 3.44 | M 2.48 | V 3.69 | P 3.32 | Q 3.21
L4: Q 2.81 | W 2.51 | K 2.52 | M 2.29 | Y 1.99
P3: H 2.17 | G 2.5 | A 2.36 | F 1.89 | Q 2.28 | N 2.2 | W 1.53
E17: H 2.84 | S 2.68 | T 3.3 | C 2.74 | L 2.29 | G 2.26
